Results on one molecule are retold here after paper doi:10.1101/151043 (bioRxiv, 2017).

Assay [1] deals with recombinant human serum albumin from S. cerevisiae, biotin labelled (Homo sapiens, UniProt P02768, EZ-Link NHS-PEG4-Biotin labelled). Briefly: SPR.
Assay [2] has as its target mouse serum albumin (Mus musculus, UniProt P07724, EZ-Link NHS-PEG4-Biotin labelled). Briefly: SPR.

Sequence of recombinant human serum albumin from S. cerevisiae, biotin labelled (P02768 25-609): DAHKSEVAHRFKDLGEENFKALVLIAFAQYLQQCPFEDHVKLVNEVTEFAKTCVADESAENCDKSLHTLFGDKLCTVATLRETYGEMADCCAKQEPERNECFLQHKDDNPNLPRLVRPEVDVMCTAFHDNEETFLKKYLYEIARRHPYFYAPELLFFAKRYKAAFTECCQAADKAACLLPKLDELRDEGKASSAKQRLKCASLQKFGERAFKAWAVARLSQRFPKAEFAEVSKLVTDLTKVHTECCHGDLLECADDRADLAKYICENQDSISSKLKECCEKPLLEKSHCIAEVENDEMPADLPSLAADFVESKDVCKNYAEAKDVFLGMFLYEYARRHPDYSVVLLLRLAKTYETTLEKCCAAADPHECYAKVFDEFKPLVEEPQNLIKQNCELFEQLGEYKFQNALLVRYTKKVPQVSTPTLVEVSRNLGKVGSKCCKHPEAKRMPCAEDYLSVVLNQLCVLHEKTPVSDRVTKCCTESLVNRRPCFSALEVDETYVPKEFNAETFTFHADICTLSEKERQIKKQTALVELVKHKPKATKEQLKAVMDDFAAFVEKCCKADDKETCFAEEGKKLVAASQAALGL
Sequence of mouse serum albumin (P07724 25-608): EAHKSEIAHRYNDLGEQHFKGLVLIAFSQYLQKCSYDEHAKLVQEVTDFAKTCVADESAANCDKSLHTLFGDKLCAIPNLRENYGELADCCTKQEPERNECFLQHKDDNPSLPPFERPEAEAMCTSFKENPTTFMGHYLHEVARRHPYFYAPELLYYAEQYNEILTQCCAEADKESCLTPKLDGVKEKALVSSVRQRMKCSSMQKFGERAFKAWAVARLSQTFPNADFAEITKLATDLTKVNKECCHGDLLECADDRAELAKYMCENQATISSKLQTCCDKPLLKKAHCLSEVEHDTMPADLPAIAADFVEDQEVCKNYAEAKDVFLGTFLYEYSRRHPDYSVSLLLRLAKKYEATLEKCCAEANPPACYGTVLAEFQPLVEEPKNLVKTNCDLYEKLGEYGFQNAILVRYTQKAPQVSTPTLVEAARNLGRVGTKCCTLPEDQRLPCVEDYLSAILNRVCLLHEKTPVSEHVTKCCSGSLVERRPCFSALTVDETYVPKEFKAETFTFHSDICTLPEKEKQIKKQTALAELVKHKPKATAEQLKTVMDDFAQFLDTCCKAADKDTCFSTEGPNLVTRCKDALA

B1: Nb.b201 (VHH)
VHH: QVQLQESGGGLVQAGGSLRLSCAASGYISDAYYMGWYRQAPGKEREFVATITHGTNTYYADSVKGRFTISRDNAKNTVYLQMNSLKPEDTAVYYCAVLETRSYSFRYWGQGTQVTVSS
Consider B1, for which the Kd in assay [1] was 430 nM. For the same molecule, the binding result in assay [2] was “no binding”.

A word on the Kd: it is the equilibrium constant for the complex coming apart.
